± gives the standard deviation of the averaged measurements.
Columns and labels:
Saccharomyces cerevisiae [1] = test: protein stability index of tFT-peptide fusion (C-terminal peptide) (PSI (0-1 scale)); higher = more stable (slower turnover)
Experimental: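 MPS profiling in S. cerevisiae of the tFT-X12 degron library: putative degron peptides plus stable controls, 12 aa, fused to the C-terminus of a sfGFP-mCherry timer. Cells are FACS-sorted into 8 mCherry/sfGFP bins and deep-sequenced. PSI runs from 0 (unstable) to 1 (stable). Backgrounds are wild type, das1Δ and doa10Δ at 30 °C, and wild type, das1Δ, cdc34-1 and cdc53-1 at 37 °C; 2-3 technical replicates each.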

Saccharomyces cerevisiae [2] = test: as above; details: genetic background: wild type; temperature: 30 C
[3] = genetic background: cdc34-1, temperature: 37 C
[4] = genetic background: cdc53-1, temperature: 37 C
[5] = genetic background: das1 deletion, temperature: 30 C
[6] = genetic background: das1 deletion, temperature: 37 C
[7] = genetic background: doa10 deletion, temperature: 30 C
[8] = genetic background: wild type, temperature: 30 C
[9] = genetic background: wild type, temperature: 37 C
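Further: PSI is a weighted mean of sequencing reads over stability bins, variants kept only with over 10 reads, mCherry proximal and sfGFP distal, peptide attached via GGGS linker.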

Sequence	protein stability index (Saccharomyces cerevisiae [1]; [3])	protein stability index (Saccharomyces cerevisiae [1]; [4])	protein stability index (Saccharomyces cerevisiae [1]; [5])	protein stability index (Saccharomyces cerevisiae [1]; [6])	protein stability index (Saccharomyces cerevisiae [1]; [7])	protein stability index (Saccharomyces cerevisiae [1]; [8])	protein stability index (Saccharomyces cerevisiae [1]; [9])	protein stability index (Saccharomyces cerevisiae [2])
FRRSFPFPLFLR	0.105 ± 0.014	0.0555 ± 0.0048	0.196 ± 0.031	0.238 ± 0.03	0.696 ± 0.04	0.197 ± 0.045	0.219 ± 0.0033	0.232 ± 0.12
FSCRRISFFLLV	0.525 ± 0.014	0.676 ± 0.039	0.536 ± 0.043	0.628 ± 0.017	0.179 ± 0.011	0.176 ± 0.012	0.26 ± 0.015	0.182 ± 0.05
FSPLVCLLFFLF	0.492 ± 0.031	0.565 ± 0.018	0.424 ± 0.017	0.5725 ± 0.00062	0.32 ± 0.0052	0.333 ± 0.019	0.4778 ± 0.0016	0.3938 ± 0.00098
FSRFPFVKLSLV	0.642 ± 0.059	0.731 ± 0.019	0.6201 ± 0.0056	0.70163 ± 0.00051	0.161 ± 0.0044	0.197 ± 0.048	0.306 ± 0.012	0.297 ± 0.016
FSSWPFFSFYLS	0.681 ± 0.032	0.689 ± 0.021	0.617 ± 0.036	0.743 ± 0.026	0.415 ± 0.034	0.392 ± 0.024	0.6048 ± 0.0018	0.518 ± 0.036
FSVRLCLFVWGC	0.399 ± 0.036	0.481 ± 0.033	0.341 ± 0.028	0.4684 ± 0.004	0.305 ± 0.0062	0.317 ± 0.015	0.4483 ± 0.0025	0.436 ± 0.1
FSYFFIFFYMVC	0.207 ± 0.029	0.257 ± 0.042	0.234 ± 0.043	0.378 ± 0.038	0.152 ± 0.01	0.147 ± 0.035	0.228 ± 0.0028	0.238 ± 0.0085
FVGVVCILWLVG	0.177 ± 0.0044	0.33 ± 0.0064	0.252 ± 0.022	0.405 ± 0.0085	0.153 ± 0.017	0.176 ± 0.026	0.318 ± 0.073	0.356 ± 0.011
FVLFSIFHFFLW	0.424 ± 0.084	0.438 ± 0.039	0.362 ± 0.051	0.528 ± 0.041	0.356 ± 0.0048	0.347 ± 0.016	0.47 ± 0.0094	0.382 ± 0.027
FVLSLGQLVFIF	0.552 ± 0.03	0.5818 ± 0.0051	0.421 ± 0.028	0.607 ± 0.018	0.381 ± 0.0082	0.397 ± 0.029	0.548 ± 0.013	0.445 ± 0.016
FVSAFVCLLCLV	0.58 ± 0.041	0.6283 ± 0.006	0.509 ± 0.0073	0.615 ± 0.0078	0.357 ± 0.013	0.377 ± 0.016	0.4877 ± 0.00084	0.4919 ± 0.004
FVSFTVSFSVVV	0.296 ± 0.018	0.38 ± 0.031	0.334 ± 0.025	0.417 ± 0.01	0.357 ± 0.031	0.342 ± 0.0055	0.382 ± 0.0063	0.379 ± 0.032
FVVIFRFSRFSA	0.419 ± 0.12	0.477 ± 0.012	0.336 ± 0.025	0.512 ± 0.018	0.313 ± 0.0064	0.326 ± 0.0097	0.494 ± 0.037	0.39 ± 0.0004
FWYIRIRLAVVA	0.0797 ± 0.027	0.175 ± 0.029	0.0867 ± 0.013	0.179 ± 0.006	0.0283 ± 0.0015	0.0257 ± 0.0096	0.0826 ± 0.01	0.0536 ± 0.019
FYIWFFRLIYFF	0.421 ± 0.043	0.4414 ± 0.0014	0.402 ± 0.039	0.536 ± 0.019	0.344 ± 0.0048	0.331 ± 0.01	0.453 ± 0.012	0.408 ± 0.014
FYTYILTVAEAL	0.518 ± 0.041	0.583 ± 0.04	0.457 ± 0.021	0.531 ± 0.013	0.454 ± 0.0094	0.455 ± 0.014	0.5273 ± 0.0011	0.482 ± 0.015
GALVVSWAEVLC	0.5163 ± 0.0026	0.525 ± 0.01	0.402 ± 0.024	0.555 ± 0.0083	0.372 ± 0.014	0.402 ± 0.037	0.57 ± 0.02	0.503 ± 0.012
GCLSFVAAVHLH	0.624 ± 0.026	0.6949 ± 0.0026	0.598 ± 0.043	0.69689 ± 0.00038	0.284 ± 0.024	0.332 ± 0.028	0.528 ± 0.034	0.4325 ± 0.0028
GCRLRHRLVRIV	0.517 ± 0.038	0.646 ± 0.052	0.604 ± 0.035	0.6902 ± 0.0065	0.109 ± 0.048	0.119 ± 0.044	0.201 ± 0.011	0.2105 ± 0.0013
GESCGGSERRVG	0.69 ± 0.019	0.7319 ± 0.0058	0.637 ± 0.009	0.7352 ± 0.0033	0.636 ± 0.024	0.666 ± 0.031	0.6897 ± 0.0056	0.643 ± 0.3

Sequence	protein stability index (Saccharomyces cerevisiae [1]; [3])	protein stability index (Saccharomyces cerevisiae [1]; [4])	protein stability index (Saccharomyces cerevisiae [1]; [5])	protein stability index (Saccharomyces cerevisiae [1]; [6])	protein stability index (Saccharomyces cerevisiae [1]; [7])	protein stability index (Saccharomyces cerevisiae [1]; [8])	protein stability index (Saccharomyces cerevisiae [1]; [9])	protein stability index (Saccharomyces cerevisiae [2])
GFGRDHGNDTGP	0.712 ± 0.017	0.7331 ± 0.0021	0.6497 ± 0.0025	0.75 ± 0.0082	0.645 ± 0.021	0.648 ± 0.02	0.725 ± 0.0097	0.721 ± 0.0055
GFRVPVVVGVRG	0.449 ± 0.023	0.475 ± 0.03	0.334 ± 0.041	0.531 ± 0.0077	0.2939 ± 0.0024	0.33 ± 0.042	0.4999 ± 0.0013	0.432 ± 0.0044
GFSSRWLMQYMV	0.585 ± 0.05	0.737 ± 0.0088	0.665 ± 0.021	0.747 ± 0.0094	0.326 ± 0.014	0.375 ± 0.11	0.462 ± 0.042	0.369 ± 0.0081
GGGGGGGGGGVG	0.313 ± 0.019	0.427 ± 0.044	0.397 ± 0.014	0.457 ± 0.057	0.391 ± 0.004	0.387 ± 0.024	0.446 ± 0.03	0.514 ± 0.045
GGGVGVAVVLFW	0.432 ± 0.024	0.501 ± 0.012	0.34 ± 0.027	0.53 ± 0.011	0.308 ± 0.011	0.342 ± 0.02	0.5056 ± 0.0016	0.417 ± 0.016
GGGVWWGVLVLG	0.37 ± 0.028	0.451 ± 0.064	0.31 ± 0.037	0.50956 ± 0.00012	0.262 ± 0.0072	0.309 ± 0.033	0.4678 ± 0.0034	0.46142 ± 8.8e-05
GGGWAVLLWVQV	0.387 ± 0.019	0.457 ± 0.043	0.339 ± 0.029	0.476 ± 0.0087	0.29 ± 0.01	0.317 ± 0.017	0.442 ± 0.007	0.406 ± 0.022
GGVVGGVGVYDG	0.702 ± 0.012	0.7445 ± 0.0015	0.635 ± 0.016	0.748 ± 0.019	0.65 ± 0.021	0.65 ± 0.02	0.706 ± 0.015	0.707 ± 0.019
GGWGVFGVWVWM	0.476 ± 0.051	0.557 ± 0.0062	0.429 ± 0.027	0.59 ± 0.0025	0.186 ± 0.0072	0.214 ± 0.031	0.422 ± 0.012	0.324 ± 0.0082
GGYVTVTSVTVV	0.587 ± 0.051	0.62 ± 0.02	0.501 ± 0.025	0.605 ± 0.019	0.499 ± 0.035	0.506 ± 0.011	0.611 ± 0.015	0.468 ± 0.039
GHYQGVCHRRIC	0.657 ± 0.026	0.725 ± 0.019	0.64 ± 0.028	0.7667 ± 0.0054	0.18 ± 0.016	0.176 ± 0.024	0.368 ± 0.033	0.34 ± 0.015
GIISMYVARRLG	0.594 ± 0.037	0.689 ± 0.0079	0.661 ± 0.015	0.69833 ± 0.00068	0.149 ± 0.016	0.173 ± 0.034	0.3 ± 0.022	0.285 ± 0.019
GKVGGRMWVWRV	0.592 ± 0.041	0.73 ± 0.015	0.63 ± 0.013	0.72579 ± 0.00022	0.116 ± 0.014	0.129 ± 0.019	0.2406 ± 0.0022	0.257 ± 0.0031
GLGVIFFLLGYG	0.469 ± 0.028	0.507 ± 0.023	0.336 ± 0.033	0.5631 ± 0.0018	0.292 ± 0.019	0.327 ± 0.016	0.551 ± 0.051	0.429 ± 0.015
GLLFWSGVVSWV	0.2627 ± 0.0023	0.388 ± 0.058	0.243 ± 0.038	0.507 ± 0.0027	0.225 ± 0.0065	0.263 ± 0.038	0.504 ± 0.014	0.4 ± 0.0088
GLLVFRCINLRC	0.449 ± 0.013	0.47 ± 0.0085	0.429 ± 0.045	0.5558 ± 0.005	0.421 ± 0.021	0.357 ± 0.03	0.471 ± 0.017	0.357 ± 0.038
GLPGYAWGRSGG	0.6759 ± 0.0045	0.788 ± 0.02	0.743 ± 0.037	0.782 ± 0.012	0.776 ± 0.037	0.775 ± 0.029	0.7221 ± 0.0024	0.586 ± 0.22
GLSLVCWIVVLG	0.153 ± 0.033	0.202 ± 0.066	0.189 ± 0.037	0.347 ± 0.017	0.1899 ± 0.0016	0.178 ± 0.032	0.318 ± 0.0055	0.306 ± 0.014
GLVVMFVIAGGG	0.405 ± 0.0067	0.459 ± 0.008	0.284 ± 0.05	0.5057 ± 0.00061	0.2577 ± 0.0014	0.299 ± 0.034	0.464 ± 0.015	0.404 ± 0.015

— the supplement of paper PMC10724198
